Measurements: patent US20260166139A1
“And” between values parts separate entries of the source, which are not always exact repeats. Equal entries are not always repeated.

What was measured:
human CTLA4 (human) [1] = target: human CTLA4 (human) (UniProt P16410); assay: ELISA, coat human CTLA4 0.5 ug/ml; antibody 0 (blank)
human CTLA4 (human) [2] = target: human CTLA4 (human) (UniProt P16410); assay: ELISA on coated CTLA4, source Human (row of 8D2H2L15)
human CTLA4 (human) [3] = target: human CTLA4 (human) (UniProt P16410); assay: ELISA on coated CTLA4, source Human (row of 8D2H2L17)
[4] = target: monkey CTLA4-hFc (monkey); assay: ELISA on coated CTLA4, source Monkey (row of 8D2H2L2)
CTLA4-mFc [5] = assay: competitive ELISA, competitor B7-2; control run with 8D2
[6] = target: CTLA4 antigen (NCBI Gene ID: 1493) obtained by TEV protease cleavage of CTLA4-mFc (Homo sapiens (Human)) (UniProt P16410); assay: BLI (Fortebio), antibody on AR2G sensor, CTLA4 in solution
human CTLA4 (human) [7] = target: human CTLA4 (human) (UniProt P16410); assay: ELISA, coat CTLA4 0.5 ug/ml; antibody 1:81 (start 1 ug/ml)
CTLA4-mFc [8] = assay: competitive ELISA, competitor B7-1; control run with 8D2H1L1
CTLA4-mFc [9] = assay: competitive ELISA, competitor B7-1; control run with 8D2H2L15
human CTLA4 (human) [10] = target: human CTLA4 (human) (UniProt P16410); assay: ELISA, coat human CTLA4 0.5 ug/ml; antibody 1:9 (start 1 ug/ml)
human CTLA4 (human) [11] = target: human CTLA4 (human) (UniProt P16410); assay: as above; remark: listed apart in the source
human CTLA4 (human) [12] = target: human CTLA4 (human) (UniProt P16410); assay: ELISA, coat human CTLA4 0.5 ug/ml; antibody 1:27 (start 1 ug/ml)
human CTLA4 (human) [13] = target: human CTLA4 (human) (UniProt P16410); assay: ELISA, coat human CTLA4 0.5 ug/ml; antibody 1:81 (start 1 ug/ml)
human CTLA4 (human) [14] = target: human CTLA4 (human) (UniProt P16410); assay: as above; remark: listed apart in the source
human CTLA4 (human) [15] = target: human CTLA4 (human) (UniProt P16410); assay: ELISA, coat human CTLA4 0.5 ug/ml; antibody 1:243 (start 1 ug/ml)
[16] = target: monkey CTLA4-hFc (monkey); assay: ELISA, coat monkey CTLA4-hFc 0.25 ug/ml; antibody 1:3 (start 1 ug/ml)
[17] = target: monkey CTLA4-hFc (monkey); assay: ELISA, coat monkey CTLA4-hFc 0.25 ug/ml; antibody 1:9 (start 1 ug/ml)
[18] = target: monkey CTLA4-hFc (monkey); assay: ELISA, coat monkey CTLA4-hFc 0.25 ug/ml; antibody 1:27 (start 1 ug/ml)
CTLA4-mFc [19] = assay: competitive ELISA, CTLA4-mFc coated, competitor B7/2-His; antibody 1 µg/ml
CTLA4-mFc [20] = assay: competitive ELISA, CTLA4-mFc coated, competitor B7/2-His; antibody 0 (no antibody)
CTLA4-mFc [21] = assay: competitive ELISA, CTLA4-mFc coated, competitor B7/2-His; antibody 3 µg/ml diluted 1:9
CTLA4-mFc [22] = assay: competitive ELISA, CTLA4-mFc coated, competitor B7/2-His; antibody 3 µg/ml diluted 1:27
CTLA4-mFc [23] = assay: competitive ELISA, CTLA4-mFc coated, competitor B7/2-His; antibody 3 µg/ml diluted 1:81
CTLA4-mFc [24] = assay: competitive ELISA, CTLA4-mFc coated, competitor B7/2-His; antibody 3 µg/ml diluted 1:729
CTLA4-mFc [25] = assay: competitive ELISA, CTLA4-mFc coated, competitor B7/2-His; antibody 1.5 µg/ml diluted 1:3
CTLA4-mFc [26] = assay: competitive ELISA, CTLA4-mFc coated, competitor B7/2-His; antibody 1 µg/ml diluted 1:729
CTLA4-mFc [27] = assay: competitive ELISA, CTLA4-mFc coated, competitor B7/2-His; antibody 1.5 µg/ml diluted 1:81
CTLA4-mFc [28] = assay: competitive ELISA, CTLA4-mFc coated, competitor B7/2-His; antibody 1.5 µg/ml diluted 1:729
CTLA4-mFc [29] = assay: competitive ELISA, B7/1-hFc coated (competitor), CTLA4-mFc added; antibody 5 µg/ml diluted 1:9
CTLA4-mFc [30] = assay: competitive ELISA, B7/1-hFc coated (competitor), CTLA4-mFc added; antibody 5 µg/ml diluted 1:81
CTLA4-mFc [31] = assay: competitive ELISA, B7/1-hFc coated (competitor), CTLA4-mFc added; antibody 5 µg/ml diluted 1:27
CTLA4-mFc [32] = assay: competitive ELISA, B7/1-hFc coated (competitor), CTLA4-mFc added; antibody 5 µg/ml diluted 1:243
CTLA4-mFc [33] = assay: competitive ELISA, B7/1-hFc coated (competitor), CTLA4-mFc added; antibody 5 µg/ml diluted 1:729
CTLA4-mFc [34] = assay: competition ELISA, coat B7/1-hFc 0.2 ug/ml (competitor), CTLA4-mFc 0.3 ug/ml detected; antibody 1:3 (start 3 ug/ml)
CTLA4-mFc [35] = assay: competition ELISA, coat B7/1-hFc 0.2 ug/ml (competitor), CTLA4-mFc 0.3 ug/ml detected; antibody 1:9 (start 3 ug/ml)
CTLA4-mFc [36] = assay: competition ELISA, coat B7/1-hFc 0.2 ug/ml (competitor), CTLA4-mFc 0.3 ug/ml detected; antibody 1:729 (start 3 ug/ml)

control antibody 11.2.1, sequence (VH): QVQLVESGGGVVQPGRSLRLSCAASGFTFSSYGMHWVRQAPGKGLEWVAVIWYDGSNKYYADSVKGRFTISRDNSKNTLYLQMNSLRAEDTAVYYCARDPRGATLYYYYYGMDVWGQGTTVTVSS
control antibody 11.2.1, sequence (VL): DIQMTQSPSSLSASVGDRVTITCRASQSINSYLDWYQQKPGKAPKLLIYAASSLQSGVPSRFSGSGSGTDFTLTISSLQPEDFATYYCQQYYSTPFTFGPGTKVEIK
CTLA4-mFc, sequence (chain, as listed by the source limits assumed): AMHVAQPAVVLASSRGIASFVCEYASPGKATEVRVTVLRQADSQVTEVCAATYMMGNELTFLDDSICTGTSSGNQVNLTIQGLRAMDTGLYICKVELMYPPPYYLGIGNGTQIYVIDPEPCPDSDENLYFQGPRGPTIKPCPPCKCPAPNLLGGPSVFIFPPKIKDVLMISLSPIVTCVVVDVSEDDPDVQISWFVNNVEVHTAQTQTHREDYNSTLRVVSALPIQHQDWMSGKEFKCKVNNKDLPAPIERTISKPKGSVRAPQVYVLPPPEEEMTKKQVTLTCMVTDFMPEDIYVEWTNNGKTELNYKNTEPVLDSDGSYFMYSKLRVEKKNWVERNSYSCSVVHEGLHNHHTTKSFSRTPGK
human CTLA4 (human), sequence (P16410 36-161 limits assumed): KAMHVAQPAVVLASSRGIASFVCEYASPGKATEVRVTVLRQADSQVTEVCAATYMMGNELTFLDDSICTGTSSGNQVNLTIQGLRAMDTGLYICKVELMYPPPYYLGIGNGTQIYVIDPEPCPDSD
CTLA4 antigen (NCBI Gene ID: 1493) obtained by TEV protease cleavage of CTLA4-mFc (Homo sapiens (Human)), sequence (P16410 37-161 limits assumed): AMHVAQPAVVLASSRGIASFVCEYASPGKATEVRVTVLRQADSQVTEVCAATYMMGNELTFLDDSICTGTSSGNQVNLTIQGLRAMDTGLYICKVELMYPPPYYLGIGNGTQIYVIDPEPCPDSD

control antibody 11.2.1 was tested, and the absorbance at 450 nm (human CTLA4 (human) [1]) was 0.072 and 0.064, the EC50 (human CTLA4 (human) [2]) was 75 pM and the EC50 (human CTLA4 (human) [3]) was 75 pM. The EC50 [4] was 75 pM, the EC50 (CTLA4-mFc [5]) was 150 pM and the Kd [6] was 903 pM. The koff [6] was 0.000349 s⁻¹, the kon [6] was 387000 M⁻¹ s⁻¹ and the absorbance at 450 nm (human CTLA4 (human) [7]) was 1.37 and 1.53. The EC50 (CTLA4-mFc [8]) was 1690 pM, the EC50 (CTLA4-mFc [9]) was 2610 pM and the absorbance at 450 nm (human CTLA4 (human) [10]) was 3.21 and 3.19. The absorbance at 450 nm (human CTLA4 (human) [11]) was 1.29 and 1.41, the absorbance at 450 nm (human CTLA4 (human) [12]) was 2.34 and 2.29 and the absorbance at 450 nm (human CTLA4 (human) [13]) was 1.25 and 1.27. For the same substance, the absorbance at 450 nm (human CTLA4 (human) [14]) was 0.499 and 0.426, the absorbance at 450 nm (human CTLA4 (human) [15]) was 0.536 and 0.552 and the absorbance at 450 nm [16] was 1.54 and 1.46. For the same substance, the absorbance at 450 nm [17] was 1.11 and 1.05, the absorbance at 450 nm [18] was 0.625 and 0.665 and the absorbance at 450 nm (CTLA4-mFc [19]) was 0.04. For the same substance, the absorbance at 450 nm (CTLA4-mFc [20]) was 0.91 and 0.8, the absorbance at 450 nm (CTLA4-mFc [21]) was 0.412 and 0.482 and the absorbance at 450 nm (CTLA4-mFc [22]) was 0.676 and 0.585. For the same substance, the absorbance at 450 nm (CTLA4-mFc [23]) was 1.12 and 0.965, the absorbance at 450 nm (CTLA4-mFc [24]) was 1.36 and 1.23 and the absorbance at 450 nm (CTLA4-mFc [25]) was 0.437 and 0.348. The absorbance at 450 nm (CTLA4-mFc [26]) was 0.87 and 0.85, the absorbance at 450 nm (CTLA4-mFc [27]) was 0.805 and 0.649 and the absorbance at 450 nm (CTLA4-mFc [28]) was 0.981 and 0.746. For the same substance, the absorbance at 450 nm (CTLA4-mFc [29]) was 0.16 and 0.138, the absorbance at 450 nm (CTLA4-mFc [30]) was 0.698 and 0.66 and the absorbance at 450 nm (CTLA4-mFc [31]) was 1.14 and 1.19. For the same substance, the absorbance at 450 nm (CTLA4-mFc [32]) was 0.755 and 0.9, the absorbance at 450 nm (CTLA4-mFc [33]) was 1.32 and 1.31 and the absorbance at 450 nm (CTLA4-mFc [34]) was 0.119 and 0.133. The absorbance at 450 nm (CTLA4-mFc [35]) was 0.381 and 0.485 and the absorbance at 450 nm (CTLA4-mFc [36]) was 0.993 and 0.841.
